Biological target: HLA-A*02:01
Assay: IEDB peptide-MHC binding, purified MHC/competitive/radioactivity; filed as Kd, often an IC50 or EC50 that approximates it; ≥ and ≤ were set here for values at or beyond the usual limits of such assays
Details: source organism: Homo sapiens

Going from ALVARAAVL to DLLVSGSNV, the Kd rises from 11100 nM to ≥ 50000 nM. The first binds more tightly here.

First: ELRRTLKEV
Second: FLAMLVLMA
The Kd of the first is higher: ≥ 50000 nM for the first, 2080 nM for the second.

Compared with GLAANQTGA, GLKGAVTLT is higher in Kd: 2380 nM for the first, ≥ 50000 nM for the second. The first binds more tightly here.

ILLGIFFLC and ILLLEAGAL are within 1.5-fold of each other in Kd: 5560 nM for the first, 4760 nM for the second.

LLVSGSNVL and LVLMAVLYV are within 1.5-fold of each other in Kd: 1410 nM for the first, 1210 nM for the second.

Going from MLARACQHA to NGMLIMCNA, the Kd rises from 1640 nM to 16700 nM (10-fold).

QLGLAANQT and SLCFLGAIA cannot be ordered by Kd: ≥ 50000 nM for the first, ≥ 10000 nM for the second.

First: SVIDPLIYA
Second: TILIGVFVV
The Kd of the first is 3.8-fold lower: 1190 nM for the first, 4540 nM for the second. The first binds more tightly here.

Going from TILLGVFIF to TLPRARRRV, the Kd rises from 4540 nM to ≥ 25000 nM.

First: YLILIMCNS
Second: YLVLINCNS
The Kd of the first is 2.9-fold higher: 6250 nM for the first, 2170 nM for the second.

Biological target: HLA-A*02:01
Assay: IEDB peptide-MHC binding, purified MHC/competitive/radioactivity; ≥ and ≤ were set here for values at or beyond the usual limits of such assays
Details: source organism: Homo sapiens

In order of falling IC50:
1. ALIICNAII  893 nM
2. AVMDPFIYA  758 nM
3. LLCLVVFFL  676 nM
4. SLNSTPTAI  633 nM
5. GLFLSLGLV  535 nM
6. GLVSLVENA  532 nM
7. TILLGIFFL  455 nM
8. SLVENALVV  429 nM
9. VLETAVGLL  238 nM
10. FLSLGLVSL  206 nM

Source: the Immune Epitope Database (IEDB)
